Experimental data reported in the supplement of paper PMC10065799, “High-throughput profiling of sequence recognition by tyrosine kinases and SH2 domains using bacterial peptide display” (eLife, 2023).
Values belong to the sequence of their own block, whether it stands above or below them.

Assays:
MERTK = MERTK (UniProt Q12866); assay: phosphorylation enrichment, bacterial display (enrichment ratio); higher = better substrate or ligand; peptides without Tyr show the background
Hck = Hck (UniProt P08631); assay: as above
Hck, sequence (P08631 whole entry, looked up): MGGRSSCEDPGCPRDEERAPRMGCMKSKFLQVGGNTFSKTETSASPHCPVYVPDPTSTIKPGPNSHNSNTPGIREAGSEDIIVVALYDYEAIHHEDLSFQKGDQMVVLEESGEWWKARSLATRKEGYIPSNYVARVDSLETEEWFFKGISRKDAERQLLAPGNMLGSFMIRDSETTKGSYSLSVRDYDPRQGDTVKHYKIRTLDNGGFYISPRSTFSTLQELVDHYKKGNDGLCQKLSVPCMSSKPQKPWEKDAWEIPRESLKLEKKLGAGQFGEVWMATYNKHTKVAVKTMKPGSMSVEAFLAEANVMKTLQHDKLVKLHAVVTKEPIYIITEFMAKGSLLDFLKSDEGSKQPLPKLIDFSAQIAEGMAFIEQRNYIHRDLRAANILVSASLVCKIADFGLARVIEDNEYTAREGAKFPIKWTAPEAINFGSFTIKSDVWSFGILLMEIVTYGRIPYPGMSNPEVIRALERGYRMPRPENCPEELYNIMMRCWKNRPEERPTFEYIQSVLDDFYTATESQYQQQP

EPHB2 = EPHB2 (UniProt P29323); assay: as above
Fes = Fes (UniProt P07332); assay: as above
Fes, sequence (P07332 whole entry, looked up): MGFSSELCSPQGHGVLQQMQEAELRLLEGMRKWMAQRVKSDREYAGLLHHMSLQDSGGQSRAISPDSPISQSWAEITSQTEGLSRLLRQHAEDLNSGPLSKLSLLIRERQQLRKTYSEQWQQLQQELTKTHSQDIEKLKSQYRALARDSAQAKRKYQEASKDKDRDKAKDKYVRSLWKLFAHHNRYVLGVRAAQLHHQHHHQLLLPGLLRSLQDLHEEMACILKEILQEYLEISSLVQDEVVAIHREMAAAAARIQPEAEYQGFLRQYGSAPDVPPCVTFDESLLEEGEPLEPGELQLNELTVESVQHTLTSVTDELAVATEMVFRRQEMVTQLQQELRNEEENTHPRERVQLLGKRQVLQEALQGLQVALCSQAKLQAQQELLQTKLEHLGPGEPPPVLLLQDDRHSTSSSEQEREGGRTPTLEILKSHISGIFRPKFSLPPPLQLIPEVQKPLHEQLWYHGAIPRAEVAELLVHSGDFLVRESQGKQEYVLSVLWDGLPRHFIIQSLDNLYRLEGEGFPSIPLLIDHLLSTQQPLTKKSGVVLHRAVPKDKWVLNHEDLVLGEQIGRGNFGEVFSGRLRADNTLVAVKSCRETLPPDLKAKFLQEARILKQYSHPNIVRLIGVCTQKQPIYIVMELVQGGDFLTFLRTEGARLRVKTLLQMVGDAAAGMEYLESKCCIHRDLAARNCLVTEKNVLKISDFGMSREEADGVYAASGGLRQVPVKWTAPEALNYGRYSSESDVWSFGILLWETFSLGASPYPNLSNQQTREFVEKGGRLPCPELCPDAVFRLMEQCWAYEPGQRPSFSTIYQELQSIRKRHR

Jak2 = Jak2 (UniProt O60674); assay: as above
Jak2, sequence (O60674 whole entry, looked up): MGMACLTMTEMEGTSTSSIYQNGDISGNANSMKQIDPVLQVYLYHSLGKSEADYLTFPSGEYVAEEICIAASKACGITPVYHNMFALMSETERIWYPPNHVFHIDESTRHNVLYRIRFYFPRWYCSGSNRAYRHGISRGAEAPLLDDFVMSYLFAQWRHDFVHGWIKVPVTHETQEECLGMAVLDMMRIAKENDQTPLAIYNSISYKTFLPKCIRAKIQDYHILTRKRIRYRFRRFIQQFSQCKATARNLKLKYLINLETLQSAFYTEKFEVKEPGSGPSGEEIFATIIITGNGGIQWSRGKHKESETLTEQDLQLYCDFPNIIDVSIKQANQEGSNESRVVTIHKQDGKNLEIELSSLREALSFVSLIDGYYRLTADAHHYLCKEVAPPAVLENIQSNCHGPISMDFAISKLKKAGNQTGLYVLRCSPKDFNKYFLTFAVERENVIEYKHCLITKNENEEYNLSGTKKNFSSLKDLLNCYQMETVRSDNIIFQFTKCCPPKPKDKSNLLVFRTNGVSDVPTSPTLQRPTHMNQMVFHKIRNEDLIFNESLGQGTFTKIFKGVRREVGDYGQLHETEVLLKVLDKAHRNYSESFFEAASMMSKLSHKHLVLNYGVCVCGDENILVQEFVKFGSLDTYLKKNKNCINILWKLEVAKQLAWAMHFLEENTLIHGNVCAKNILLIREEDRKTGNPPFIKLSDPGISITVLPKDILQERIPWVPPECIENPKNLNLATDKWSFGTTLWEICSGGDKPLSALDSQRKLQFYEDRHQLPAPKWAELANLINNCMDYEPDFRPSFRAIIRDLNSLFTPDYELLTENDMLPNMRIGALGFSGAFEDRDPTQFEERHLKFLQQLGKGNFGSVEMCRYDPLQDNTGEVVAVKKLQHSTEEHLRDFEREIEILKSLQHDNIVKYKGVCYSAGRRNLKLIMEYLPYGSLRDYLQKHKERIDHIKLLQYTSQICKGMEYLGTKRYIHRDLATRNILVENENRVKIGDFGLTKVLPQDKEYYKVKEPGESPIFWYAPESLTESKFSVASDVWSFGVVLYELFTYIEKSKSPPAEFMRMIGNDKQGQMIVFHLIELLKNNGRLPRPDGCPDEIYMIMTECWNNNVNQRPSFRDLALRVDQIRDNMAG

c-Abl (mouse) = assay: as above
FGFR1 = FGFR1 (UniProt P11362); assay: as above
FGFR1, sequence (P11362 whole entry, looked up): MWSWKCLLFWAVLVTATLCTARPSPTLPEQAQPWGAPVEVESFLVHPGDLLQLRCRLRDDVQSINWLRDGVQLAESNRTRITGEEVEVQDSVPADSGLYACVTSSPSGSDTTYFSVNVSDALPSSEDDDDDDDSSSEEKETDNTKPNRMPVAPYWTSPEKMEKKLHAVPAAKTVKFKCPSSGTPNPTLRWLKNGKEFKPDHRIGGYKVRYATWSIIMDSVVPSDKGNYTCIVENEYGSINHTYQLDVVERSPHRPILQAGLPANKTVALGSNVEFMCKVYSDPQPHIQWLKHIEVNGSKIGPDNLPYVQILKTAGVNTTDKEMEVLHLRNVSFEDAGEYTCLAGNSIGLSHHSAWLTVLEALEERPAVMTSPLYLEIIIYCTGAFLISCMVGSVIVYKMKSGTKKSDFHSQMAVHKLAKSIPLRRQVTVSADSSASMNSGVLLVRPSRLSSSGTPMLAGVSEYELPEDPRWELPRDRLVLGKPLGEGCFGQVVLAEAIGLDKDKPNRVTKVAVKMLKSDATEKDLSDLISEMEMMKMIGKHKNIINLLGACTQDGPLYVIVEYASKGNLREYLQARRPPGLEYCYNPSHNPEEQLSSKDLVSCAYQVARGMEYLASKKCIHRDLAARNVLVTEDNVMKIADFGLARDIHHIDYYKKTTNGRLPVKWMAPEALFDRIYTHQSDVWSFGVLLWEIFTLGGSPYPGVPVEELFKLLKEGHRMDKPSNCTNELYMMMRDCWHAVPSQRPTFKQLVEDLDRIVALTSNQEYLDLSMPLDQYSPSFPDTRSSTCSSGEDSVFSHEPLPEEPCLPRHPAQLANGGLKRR

Fer (mouse) = assay: as above
Fyn = Fyn (UniProt P06241); assay: as above
Fyn, sequence (P06241 whole entry, looked up): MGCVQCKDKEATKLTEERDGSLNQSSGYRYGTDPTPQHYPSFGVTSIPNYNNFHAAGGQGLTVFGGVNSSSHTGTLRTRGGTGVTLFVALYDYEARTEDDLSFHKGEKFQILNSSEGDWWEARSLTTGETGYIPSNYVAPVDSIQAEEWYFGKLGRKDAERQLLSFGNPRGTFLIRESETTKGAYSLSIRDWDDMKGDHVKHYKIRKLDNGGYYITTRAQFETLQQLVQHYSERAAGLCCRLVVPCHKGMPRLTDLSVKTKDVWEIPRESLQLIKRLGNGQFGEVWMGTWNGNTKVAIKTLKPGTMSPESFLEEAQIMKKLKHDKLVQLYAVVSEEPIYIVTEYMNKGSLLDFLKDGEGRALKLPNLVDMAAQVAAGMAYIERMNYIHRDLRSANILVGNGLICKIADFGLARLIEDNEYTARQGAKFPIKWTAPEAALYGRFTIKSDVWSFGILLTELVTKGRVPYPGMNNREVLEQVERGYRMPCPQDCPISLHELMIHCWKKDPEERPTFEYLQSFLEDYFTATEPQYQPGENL

AncSZ = assay: as above
FGFR3 = FGFR3 (UniProt P22607); assay: as above
FGFR3, sequence (P22607 whole entry, looked up): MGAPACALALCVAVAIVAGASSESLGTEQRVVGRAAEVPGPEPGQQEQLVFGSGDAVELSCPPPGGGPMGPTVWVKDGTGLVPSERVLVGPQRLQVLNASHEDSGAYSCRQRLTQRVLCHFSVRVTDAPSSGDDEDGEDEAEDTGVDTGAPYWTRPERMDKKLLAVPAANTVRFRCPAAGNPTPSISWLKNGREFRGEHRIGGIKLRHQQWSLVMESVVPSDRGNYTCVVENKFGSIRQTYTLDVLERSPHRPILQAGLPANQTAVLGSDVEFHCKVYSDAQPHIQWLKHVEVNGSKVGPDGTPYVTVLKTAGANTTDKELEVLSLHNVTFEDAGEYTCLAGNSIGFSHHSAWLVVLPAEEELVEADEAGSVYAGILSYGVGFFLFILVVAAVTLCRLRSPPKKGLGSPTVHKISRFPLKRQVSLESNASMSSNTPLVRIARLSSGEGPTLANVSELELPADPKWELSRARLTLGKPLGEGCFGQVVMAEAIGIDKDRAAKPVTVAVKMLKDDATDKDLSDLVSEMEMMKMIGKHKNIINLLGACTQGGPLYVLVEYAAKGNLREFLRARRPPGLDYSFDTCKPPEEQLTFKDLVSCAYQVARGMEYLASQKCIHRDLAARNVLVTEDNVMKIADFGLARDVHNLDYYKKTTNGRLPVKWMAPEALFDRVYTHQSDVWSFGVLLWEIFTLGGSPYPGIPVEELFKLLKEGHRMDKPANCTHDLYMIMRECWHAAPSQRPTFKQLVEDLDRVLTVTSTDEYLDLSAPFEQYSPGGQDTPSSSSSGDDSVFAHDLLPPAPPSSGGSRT

EPHB1 = EPHB1 (UniProt P54762); assay: as above
c-Src = assay: as above
Grb2 SH2 = Grb2 SH2 (UniProt P62993); assay: SH2 binding enrichment of the phosphorylated peptide, bacterial display (enrichment ratio); higher = better substrate or ligand; peptides without Tyr show the background
c-Src SH2 = assay: as above
SHP2-C SH2 = assay: as above
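Throughout, for SH2 binding enrichment of the phosphorylated peptide, bacterial display: peptide library displayed on the E. coli surface as eCPX fusions, selected cells deep-sequenced, score is each peptide's frequency after selection divided by its frequency in the input.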
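Throughout, for phosphorylation enrichment, bacterial display: 11-residue human phosphosite peptides and single-mutation variants displayed on the E. coli surface, counted by deep sequencing, each peptide's frequency after selection divided by its frequency in the unselected input library; frequency after pTyr selection over input frequency; kinase dosed for 20-30% of maximal phosphorylation in three min.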

SH2 binding enrichment (Grb2 SH2): 0.684
SH2 binding enrichment (c-Src SH2): 0.533
SH2 binding enrichment (SHP2-C SH2): 0.767
Sequence: LTSKPYAFTAR [NDUFS1_Y236]
phosphorylation enrichment (MERTK): 0.649
phosphorylation enrichment (Hck): 0.58
phosphorylation enrichment (EPHB2): 1.08
phosphorylation enrichment (Fes): 1.1
phosphorylation enrichment (Jak2): 0.398
phosphorylation enrichment (c-Abl (mouse)): 0.453
phosphorylation enrichment (FGFR1): 0.67
phosphorylation enrichment (Fer (mouse)): 0.591
phosphorylation enrichment (Fyn): 0.722
phosphorylation enrichment (AncSZ): 0.663
phosphorylation enrichment (FGFR3): 1.36
phosphorylation enrichment (EPHB1): 0.617
phosphorylation enrichment (c-Src): 0.534

SH2 binding enrichment (Grb2 SH2): 1.3
SH2 binding enrichment (c-Src SH2): 1.21
SH2 binding enrichment (SHP2-C SH2): 1.76
Sequence: LVMFIYAIFWM [SCN1A_Y1684_G1688W]
phosphorylation enrichment (MERTK): 0.527
phosphorylation enrichment (Hck): 0.558
phosphorylation enrichment (EPHB2): 0.491
phosphorylation enrichment (Fes): 1.05
phosphorylation enrichment (Jak2): 0.963
phosphorylation enrichment (c-Abl (mouse)): 0.739
phosphorylation enrichment (FGFR1): 0.566
phosphorylation enrichment (Fer (mouse)): 0.531
phosphorylation enrichment (Fyn): 0.563
phosphorylation enrichment (AncSZ): 1.07
phosphorylation enrichment (FGFR3): 0.626
phosphorylation enrichment (EPHB1): 0.525
phosphorylation enrichment (c-Src): 0.5

SH2 binding enrichment (Grb2 SH2): 1.16
SH2 binding enrichment (c-Src SH2): 0.542
SH2 binding enrichment (SHP2-C SH2): 0.762
Sequence: LVMFTYAIFGM [SCN1A_Y1684_I1683T]
phosphorylation enrichment (MERTK): 0.937
phosphorylation enrichment (Hck): 1.48
phosphorylation enrichment (EPHB2): 1.43
phosphorylation enrichment (Fes): 2.16
phosphorylation enrichment (Jak2): 2.23
phosphorylation enrichment (c-Abl (mouse)): 1.82
phosphorylation enrichment (FGFR1): 0.728
phosphorylation enrichment (Fer (mouse)): 1.08
phosphorylation enrichment (Fyn): 2.15
phosphorylation enrichment (AncSZ): 2.09
phosphorylation enrichment (FGFR3): 1.73
phosphorylation enrichment (EPHB1): 1.78
phosphorylation enrichment (c-Src): 2.9

SH2 binding enrichment (Grb2 SH2): 0.76
SH2 binding enrichment (c-Src SH2): 0.71
SH2 binding enrichment (SHP2-C SH2): 0.495
Sequence: MAPQMYESHLP [NCAPD2_Y6_F8S]
phosphorylation enrichment (MERTK): 0.466
phosphorylation enrichment (Hck): 0.568
phosphorylation enrichment (EPHB2): 0.702
phosphorylation enrichment (Fes): 0.555
phosphorylation enrichment (Jak2): 0.524
phosphorylation enrichment (c-Abl (mouse)): 0.437
phosphorylation enrichment (FGFR1): 0.477
phosphorylation enrichment (Fer (mouse)): 9.41
phosphorylation enrichment (Fyn): 0.45
phosphorylation enrichment (AncSZ): 0.501
phosphorylation enrichment (FGFR3): 0.657
phosphorylation enrichment (EPHB1): 0.548
phosphorylation enrichment (c-Src): 0.378

The remaining lines, values behind:

Sequence: LTVVIYVLIGR [EPHA3_Y561]
phosphorylation enrichment (MERTK): 0.697
phosphorylation enrichment (Hck): 0.839
phosphorylation enrichment (EPHB2): 1.77
phosphorylation enrichment (Fes): 2.13
phosphorylation enrichment (Jak2): 0.844
phosphorylation enrichment (c-Abl (mouse)): 1.9
phosphorylation enrichment (FGFR1): 0.691
phosphorylation enrichment (Fer (mouse)): 1.83
phosphorylation enrichment (Fyn): 0.567
phosphorylation enrichment (AncSZ): 1.39
phosphorylation enrichment (FGFR3): 1.26
phosphorylation enrichment (EPHB1): 1.05
phosphorylation enrichment (c-Src): 0.643
SH2 binding enrichment (Grb2 SH2): 1.64
SH2 binding enrichment (c-Src SH2): 0.918
SH2 binding enrichment (SHP2-C SH2): 1.36

Sequence: LVSCAYQMARG [FGFR1_Y605_V607M]
phosphorylation enrichment (MERTK): 0.489
phosphorylation enrichment (Hck): 0.741
phosphorylation enrichment (EPHB2): 0.79
phosphorylation enrichment (Fes): 2.32
phosphorylation enrichment (Jak2): 0.937
phosphorylation enrichment (c-Abl (mouse)): 0.998
phosphorylation enrichment (FGFR1): 0.66
phosphorylation enrichment (Fer (mouse)): 0.824
phosphorylation enrichment (Fyn): 0.589
phosphorylation enrichment (AncSZ): 1.22
phosphorylation enrichment (FGFR3): 0.882
phosphorylation enrichment (EPHB1): 0.578
phosphorylation enrichment (c-Src): 1.4
SH2 binding enrichment (Grb2 SH2): 0.731
SH2 binding enrichment (c-Src SH2): 0.661
SH2 binding enrichment (SHP2-C SH2): 0.9

Sequence: LYNQDYPIHSV [GATM_Y227]
phosphorylation enrichment (MERTK): 0.771
phosphorylation enrichment (Hck): 0.966
phosphorylation enrichment (EPHB2): 1.03
phosphorylation enrichment (Fes): 1.23
phosphorylation enrichment (Jak2): 0.984
phosphorylation enrichment (c-Abl (mouse)): 0.86
phosphorylation enrichment (FGFR1): 2.26
phosphorylation enrichment (Fer (mouse)): 0.732
phosphorylation enrichment (Fyn): 1.31
phosphorylation enrichment (AncSZ): 1.17
phosphorylation enrichment (FGFR3): 1.44
phosphorylation enrichment (EPHB1): 0.866
phosphorylation enrichment (c-Src): 0.901
SH2 binding enrichment (Grb2 SH2): 1.02
SH2 binding enrichment (c-Src SH2): 0.481
SH2 binding enrichment (SHP2-C SH2): 0.788

Sequence: MARDISRASYY [ALK_Y1278_Y1278S]
phosphorylation enrichment (MERTK): 0.453
phosphorylation enrichment (Hck): 0.395
phosphorylation enrichment (EPHB2): 0.395
phosphorylation enrichment (Fes): 0.73
phosphorylation enrichment (Jak2): 0.65
phosphorylation enrichment (c-Abl (mouse)): 0.59
phosphorylation enrichment (FGFR1): 0.464
phosphorylation enrichment (Fer (mouse)): 0.33
phosphorylation enrichment (Fyn): 0.475
phosphorylation enrichment (AncSZ): 0.525
phosphorylation enrichment (FGFR3): 0.452
phosphorylation enrichment (EPHB1): 0.422
phosphorylation enrichment (c-Src): 0.463
SH2 binding enrichment (Grb2 SH2): 0.776
SH2 binding enrichment (c-Src SH2): 0.433
SH2 binding enrichment (SHP2-C SH2): 0.519

Sequence: MCVKSYTIHFS [F5_Y2153_Y2149C_YF]
phosphorylation enrichment (MERTK): 0.448
phosphorylation enrichment (Hck): 0.546
phosphorylation enrichment (EPHB2): 0.622
phosphorylation enrichment (Fes): 1.41
phosphorylation enrichment (Jak2): 1.05
phosphorylation enrichment (c-Abl (mouse)): 1.02
phosphorylation enrichment (FGFR1): 0.525
phosphorylation enrichment (Fer (mouse)): 0.552
phosphorylation enrichment (Fyn): 0.489
phosphorylation enrichment (AncSZ): 1.47
phosphorylation enrichment (FGFR3): 1.01
phosphorylation enrichment (EPHB1): 0.718
phosphorylation enrichment (c-Src): 0.565
SH2 binding enrichment (Grb2 SH2): 0.841
SH2 binding enrichment (c-Src SH2): 0.485
SH2 binding enrichment (SHP2-C SH2): 0.617
